Columns and labels:
[1] = target: endogenous murine MerTK on bone marrow-derived macrophages (mouse) (UniProt Q60805); test: FACS, mouse BMDM, WT minus MerTK KO
[2] = target: mouse MerTK overexpressed on CHO cells (mouse) (UniProt Q60805); test: FACS, CHO-muMerTK OE cells, PE-conjugated control
Sequence of mouse MerTK overexpressed on CHO cells (mouse) (Q60805 19-994): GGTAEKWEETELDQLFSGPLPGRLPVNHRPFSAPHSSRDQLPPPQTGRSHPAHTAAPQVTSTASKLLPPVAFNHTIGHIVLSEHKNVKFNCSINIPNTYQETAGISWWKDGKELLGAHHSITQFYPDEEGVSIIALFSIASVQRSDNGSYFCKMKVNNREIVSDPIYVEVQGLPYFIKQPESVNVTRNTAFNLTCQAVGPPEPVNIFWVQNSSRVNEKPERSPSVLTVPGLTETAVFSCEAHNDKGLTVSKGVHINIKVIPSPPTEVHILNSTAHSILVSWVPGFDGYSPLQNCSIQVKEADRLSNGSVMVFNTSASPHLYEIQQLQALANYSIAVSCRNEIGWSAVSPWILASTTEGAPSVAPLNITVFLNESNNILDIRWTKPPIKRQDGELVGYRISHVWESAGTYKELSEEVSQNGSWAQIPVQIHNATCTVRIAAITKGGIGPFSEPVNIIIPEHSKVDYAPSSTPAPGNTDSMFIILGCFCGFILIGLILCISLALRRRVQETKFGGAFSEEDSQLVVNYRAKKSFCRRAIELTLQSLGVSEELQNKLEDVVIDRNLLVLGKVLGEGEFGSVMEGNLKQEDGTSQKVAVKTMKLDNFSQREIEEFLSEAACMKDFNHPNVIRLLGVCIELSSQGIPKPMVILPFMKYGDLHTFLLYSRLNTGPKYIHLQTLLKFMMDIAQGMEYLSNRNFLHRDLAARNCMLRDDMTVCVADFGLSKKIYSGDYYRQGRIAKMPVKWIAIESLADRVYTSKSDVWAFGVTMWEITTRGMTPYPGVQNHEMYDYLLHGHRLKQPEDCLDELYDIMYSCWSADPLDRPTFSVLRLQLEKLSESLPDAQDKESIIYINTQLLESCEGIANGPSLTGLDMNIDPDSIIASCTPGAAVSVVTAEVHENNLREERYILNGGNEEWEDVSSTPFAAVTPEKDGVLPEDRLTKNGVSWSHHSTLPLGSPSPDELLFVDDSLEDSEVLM

Sequence of endogenous murine MerTK on bone marrow-derived macrophages (mouse) (Q60805 19-994): as above

- MFI [1]: 2800 MFI
- MFI [2]: 3500 MFI
Substance: rat anti-mouse MerTK monoclonal antibody DS5MMER

Source: patent publication US20240294650A1
